Results reported in patent publication US12312412 (dated 2025).

Biological target: MAGEB2 peptide … / HLA-A*02:01 / b2m (human)
Test: FACS

Binder	Kd
MA 86-A4 CC (K2W) (antibody, V domains shown) VH: QVQLVESGGGVVQPGRSLRLSCAASGFTFSTYGMHWVRQAPGKCLEWVAVISYDASNKYYAESVKGRFTISRDNSKNTLYLQMNSLRAEDTAVYYCARGQLLTGYWGQGTLVTVSS VL: DIQMTQSPSSLSASVGDRVTITCRASQGISNYLAWYQQKPGKVPKLLIYAASTLQSGVPSRFSGSGSGTDFTLTISSLQPEDFATYYCQKYNSAPFTFGCGTKVEIK	35500 pM
MA 86-A4-N-F5 CC (M4H) (antibody, V domains shown) VH: QVQLVESGGGVVQPGRSLRLSCAASGFTFSTYGMHWVRQAPGKCLEWVAVISYDAETVKYAESVKGRFTISRDNSKNTLYLQMNSLRAEDTAVYYCARGQLLTGYWGQGTLVTVSS VL: DIQMTQSPSSLSASVGDRVTITCRASQGISNYLAWYQQKPGKVPKLLIYAASTLQSGVPSRFSGSGSGTDFTLTISSLQPEDVATYYCQKYNSAPFTFGCGTKVEIK	51800 pM
MA 81-B9 CC (U4L) (antibody, V domains shown) VH: QVQLQESGPGLVKPSETLSLTCTVSGDSISSSRYYWGWIRQPPGKCLEWIGSIYYSGSTYYNPSLKSRVTISVDTSKNQFSLKLSSVTAADTAVYYCARGIFGVITYFDYWGQGTLVTVSS VL: not shown	18800 pM
MA 88-B3-F9 CC (Y4E) (antibody, V domains shown) VH: QVQLVESGGGLVKPGGSLRLSCAASGFTFSDYYMSWIRQAPGKCLEWVSYISKSSYTVTYADAVKGRFTISRDNAKNSLYLQMNSLRAEDTAVYYCATYNYGHFDYWGQGTLVTVSS VL: SYVLTQPPSVSVAPGQTARITCGGNNIGSKSVHWYQQKPGQAPVLVVYDDADRPSGIPERFSGSNSGNTATLTISRVEAGDEADYYCQVWDASAGYGVVFGCGTKLTVL	74100 pM
MA 10-H1 CC (T9K) (antibody, V domains shown) VH: EVQLVESGGGLVQPGGSLRLSCAASGFTFSNAWMSWVRQAPGKCLEWVGRITSGIYGGTTDYAAPVKGRFTISRDDSKNTLYLQMNSLKTEDTAVYYCTTPSYSGSYYNYFSVMDVWGQGTTVTVSS VL: DIQMTQSPSSLSASVGDRVTITCRTSQSISSYLNWYQQKPGRAPKLLIFAASSLQSGVPSRFSGSGSGTDFTLTISSLQPEDFATYYCQQTYSMPFTFGCGTKVDIK	1200 pM
MA 10-B5 CC (H6H) (antibody, V domains shown) VH: EVQLVESGGGLVQPGGSLRLSCAASGFTFSNAWMSWVRQAPGKCLEWVGRIRSRSYGGTTDYAAPVKGRFTISRDDSKNTLFLQMNSLKTEDTAVYYCTTPSYSGSYYNYFSVMDVWGQGTTVTVSS VL: DIQMTQSPSSLSASVGDRVTITCRTSQSISSYLNWYQQKPGRAPKLLIFAASSLQGGVPSRFSGSGSGTDFTLTISSLQPEDFATYYCQQTYSMPFTFGCGTKVEIK	700 pM
MA 09-C7 CC (K9T) (antibody, V domains shown) VH: QVTLKESGPALVKPTQTLTLTCTFSGFSFTTHKMGVDWIRQPPGKCLEWLAEIHSEDDKRYSPSLQSRLTITKDTSKNQVVLTMTNMDPVDTATYYCAYRRYNWNYENWFDPWGQGTLVTVSS VL: DIQMTQSPSSLSASVGDRVTITCRASQSISNYFNWYQQKPGKAPKLLIYAASSLQSGVPSRFSGSGSGTDFTLTISSLQPEDFATYYCQQSYITPFTFGCGTKVEIK	900 pM
MA 09-E2 CC (V8T) (antibody, V domains shown) VH: EVQLVESGGGLVQPGGSLRLSCAASGFTFSNAWMSWVRQAPGKCLEWVGRIKSKTYGGTTDYAAPVKGRFTISRDDSKNTLFLQMNSLKTEDTAVYYCTTPSYSGSYYNYFSVMDVWGQGTTVTVSS VL: DIQMTQSPSSLSASVGDRVTITCRTSQSISSYLNWYQQKPGRAPKLLIFAASSLQGGVPSRFSGSGSGTDFTLTISSLQPEDFATYYCQQSYSSPFTFGCGTKVEIK	700 pM
MA 10-D6 CC (V6Z) (antibody, V domains shown) VH: EVQLVESGGGLVKPGGSLRLSCAASGFTFSNAWMSWVRQAPGKCLEWVGRILNNAYGGTTDYAAPVKGRFTISRDDSKNTLYLQMNSLKTEDTAVYYCTTPSYSGSYYNYFSVMDVWGQGTTVTVSS VL: DIQMTQSPSSLSASVGDRVTITCRTSQSISSYLNWYQQKPGRAPKLLIFAASSLQGGVPSRFSGSGSGTDFTLTISSLQPEDFATYYCQQTYSMPFTFGCGTKVDIK	700 pM
MA 09-G11 CC (Y9Q) (antibody, V domains shown) VH: QITLKESGPMLVKPTQTLTLTCTFSGFSFTTHKMGVDWIRQPPGKCLEWLALIYWNDDKRYSPSLQSRLTITKDTSKNQVVLTMTNMDPVDTATYYCAYRRYNWNYENWFDPWGQGTLVTVSS VL: DIQMTQSPSSLSASVGDRVTITCRASQFISSYLNWYQQKPGKAPKLLIYAASSLQSGVPSRFSGRGSGTDFTLTISSLQPEDFATYYCQQSYQSPTTFGCGTKVEIK	600 pM
MA 10-D3 CC (O6B) (antibody, V domains shown) VH: EVQLVESGGGLVQPGGSLRLSCAASGFTFSNAWMSWVRQAPGKCLEWVGRITSSRYGGTTDYAAPVKGRFTISRDDSKNTLFLQMNSLKTEDTAVYYCTTPSYSGSYYNYFSVMDVWGQGTTVTVSS VL: DIQMTQSPSSLSASVGDRVTITCRTSQSISSYLNWYQQKPGRAPKLLIFAASSLQGGVPSRFSGSGSGTDFTLTISSLQPEDFATYYCQQTYSMPFTFGCGTKVDIK	1100 pM
MA 03-G10_AS CC (N3H) (antibody, V domains shown) VH: EVQLLESGGGLVQPGGSLRLSCAASGFTFSSYAMSWVRQAPGKCLEWVSAISGSGGGTYYAASVKGRFTISRDNSKNTLYLQMSSLRAEDTAVYYCATGKGVHLGFDYWGQGTLVTVSS VL: SYVLTQPPSVSVAPGQTARITCGGNNIGSKSVHWYQQKPGQAPVMVVYDDNDRPSGIPERFSGSNSGNTATLTISRVEAGDEADYYCQVWDYSGQRQVFGCGTKLTVL	900 pM
MA 03-E7_AS CC (L6M) (antibody, V domains shown) VH: EVQLLESGGGVVQPGRSLRLSCAASGFTFSSHAMSWVRQAPGKCLEWVSAISGSGGGTYYAASGKGRFTISRDNSKNTLYLQMNSLRAEDTAAYYCVTGKGVHLGFDYWGQGTLVTVSS VL: SYVLTQPPSVSVAPGQTARITCGGNNIGSKSVHWYQQKPGQAPVMVVYDDNDRPSGIPERFSGSNSGNTATLTISRVEAGDEADYYCQVWDYNMNVWVFGCGTKLTVL	500 pM
MA 98-C7 CC (Y8P) (antibody, V domains shown) VH: EVQLLESGGGLVQPGGSLRLSCAASGFTFSSHAMSWVRQAPGKCLEWVSSISGSGGGTYYAASVKGRFTISRDNSKNTLYLQMNSLRAEDTAVYYCATGKGVHLGFDYWGQGTLVTVSS VL: SYVLTQPPSVSVAPGQTARITCGGNNIGSKSVHWYQQKPGQAPVMVVYDDNDRPSGIPERFSGSNSGNTATLTISRVEAGDEADYYCQVWDYSPLRHVFGCGTKLTVL	700 pM
MA 10-G10 AS CC (T1I) (antibody, V domains shown) VH: EVQLLESGGGLVQPGGSLRLSCAASGFTFSSHAMSWVRQAPGKCLEWVSAISGSGGGTYNAASVKGRFTISRDNSKNTLYLQMNSLRAEDTAVYYCATGKGVHLGFDYWGQGTLVTVSS VL: SYVLTQPPSVSVAPGQTARITCGGNNIGSKSVHWYQQKPGQAPVMVVYDDNDRPSGIPERFSGSNSGNTATLTISRVEAGDEADYYCQVWDYVAPRHVFGCGTKLTVL	1700 pM
MA 98-G12_AS CC (Q4Z) (antibody, V domains shown) VH: EVQLLESGGGLVQPGGSLRLSCAASGFTFSSHAMSWVRQAPGKCLEWVSAISGSGGGTYNAASVKGRFTISRDNSKNTLYLQMNSLRAEDTAAYYCVTGKGVHLGFDYWGQGTLVTVSS VL: SYVLTQPPSVSVAPGQTARITCGGNNIGSKSVHWYQQKPGQAPVMVVYDDNDRPSGIPERFSGSNFGNTATLIISRVEAGDEADYYCQVWDYFSMTHVFGCGTKLTVL	900 pM
MA 03-D8 AS CC (L7E) (antibody, V domains shown) VH: EVQLLESGGGLVQPGGSLRLSCAASGFTFSSHAMSWVRQAPGKCLEWVSTISGSGGGTYYAASVKGRFTISRDNSKNTLYLQMNSLRAEDTAVYYCATGKGVHLGFDYWGQGTLVTVSS VL: SYVLTQPPSVSVAPGQTARITCGGNNIGSKSVHWYQQKPGQAPVMVVYDDNDRPSGIPERFSGSNFGNTATLIISRVEAGDEADYYCQVWDYRTLDWVFGCGTKLTVL	500 pM
MA 09-G10 CC (C4K) (antibody, V domains shown) VH: QITLKESGPTLVKPTQTLTLTCTFSGFSFTTHKMGVDWIRQPPGKCLEWLAGIHIYDDKRYSPSLQSRLTITKDTSKNQVVLTMTNMDPVDTATYYCAYRRYNWNYENWFDPWGQGTLVTVSS VL: DIQMTQSPSSLSASVGDRVTITCQASQDISNYFNWYQQKPGKAPKLLIYAASSLQSGVPSRFSGSGSGTDFTLTISSLQPEDFATYYCQQSYITPFTFGCGTKVEIK	800 pM
MA 09-F12 CC (D1U) (antibody, V domains shown) VH: QITLKESGPALVKPTQTLTLTCTFSGFSFTTHKMGVDWIRQPPGKCLEWLALIYWNDDKRYSPSLQSRLTITKDTSKNQVVLTMTNMDPVDTATYYCAYRRYNWNYENWFDPWGQGTLVTVSS VL: DIQMTQSPSSLSASVGDRVTITCQASQDISNYLNWYQQKPGKAPKLLIYAASSLQSGVPSRFSGRGSGTDFTLTISSLQPEDFATYYCQQSYYYPTLFGCGTKVEIK	500 pM
MA 09-H10 CC (B6N) (antibody, V domains shown) VH: QITLKESGPTLVKPTQTLTLTCTFSGFSFTTHKMGVDWIRQPPGKCLEWLALIYWNDDKRYSPSLQSRLTITKDTSKNQVVLTMTNMDPVDTATYYCAYRRYNWNYENWFDPWGQGTLVTVSS VL: DIQMTQSPSSLSASVGDRVTITCQASQDISNYLNWYQQKPGKAPKLLIYAASSLQSGVPSRFSGRGSGTDFTLTISSLQPEDFATYYCQQSYTPPTTFGCGTKVEIK	600 pM
MA 09-H11 CC (I8L) (antibody, V domains shown) VH: QITLKESGPTLVKPTQTLTLTCTFSGFSFTTHKMGVDWIRQPPGKCLEWLALIYWNDDKRYSPSLQSRLTITKDTSKNQVVLTMTNMDPVDTATYYCAYRRYNWNYENWFDPWGQGTLVTVSS VL: not shown	500 pM
MA 09-F11 CC (L6Q) (antibody, V domains shown) VH: QITLKESGPMLVKPTQTLTLTCTFSGFSFTTHKMGVDWIRQPPGKCLEWLALIYWNDDKRYSPSLQSRLTITKDTSKNQVVLTMTNMDPVDTATYYCAYRRYNWNYENWFDPWGQGTLVTVSS VL: DIQMTQSPDSLSASVGDRVTITCQASQDISNYLNWYQQKPGKAPKLLIYAASSLQSGVPSRFSGSGSGTDFTLTISSLQPEDFATYYCQQSYMWPTIFGCGTKVEIK	600 pM
MA SG-F28 CC (D9R) (antibody, V domains shown) VH: QVQLQESGPGLVKPSQTLSLTCTVSGDSISSNPYYWSWIRQHPGKCLEWIGYISYSGITNYNPSLKSRVTMSVDTSKNQFSLKLTSLTAADTAVYYCAREKMWFGVLNYYYGMDVWGQGTTVTVSS VL: DIVMTQTPLSLPVTPGEPASISCRSSQSLLHRSGYNYLDWYLQKPGQSPQLLIYLGSNRASGVPDRFSGSGSGTDFTLKISRVEAGDVGVYYCMQALQTPWTFGCGTKVEIK	76800 pM
